Results as given in patent EP4644412A1.

Molecular target: TPO receptor (TPOR)
Experiment: cell-based or functional assay

## Human TPO synthetic protein (rhTPO) (from UniProt P40225 22-353) (ligand)
  EC50 of relative cell proliferation of BaF3/MPL cells (Cell Titer-Glo, 48 h): 1.7 ng/mL
